For the assay, the target named is mouse embryonic heparan sulfate (HS) coupled to HiTrap column. Nature of the assay: HS affinity chromatography (FPLC). The conditions noted are these: 0-1.5 M NaCl gradient from fraction 5 to 14, parent: est. 100, read off a plot.
Where [1] appears, read: value is the height of the salt-eluted peak at fraction 12.

On to “Scube2 (signal peptide, CUB domain, epidermal growth factor (EGF)-like protein 2), full-length, FLAG-tagged (from UniProt Q9NQ36) K608A; R609A; K612A; R613A; R615A; K616A; R619A; R622A; K623A; H626A; R627A; K643A; K644A; R647A”, for which, under setting [1], the response came to 11%. Same read-out and setting: the value for “Scube2 (signal peptide, CUB domain, epidermal growth factor (EGF)-like protein 2), full-length, FLAG-tagged (from UniProt Q9NQ36) K608E; R609E; K612E; R613E; R615E; K616E; R619E; R622E; K623E; H626E; R627E” was 4%. In the case of “Spacer (isolated Scube2 spacer domain) K608A; R609A; K612A; R613A; R615A; K616A; R619A; R622A; K623A; H626A; R627A; K643A; K644A; R647A”, the response (value is the height of the salt-eluted peak at about fraction 12) is 5%.

The values above are taken from PMC4873810.
